# According to patent publication US6800481B1, “Stable macroscopic membranes formed by self-assembly of amphiphilic peptides and uses therefor” (priority 1992, dated 2004):
# Residue numbers refer to the chain shown, from its start. Entries after “also recorded” stand apart in the source; their conditions may differ.
# B1: zuotin: 433 amino acid yeast putative Z-DNA binding protein, SEQ ID NO: 2 (protein)
# chain: MFSLPTLTSDITVEVNSSATKTPFVRRPVEPVGKFFLQHAQRTLRNHTWSEFERIEAEKNVKTVDESNVDPDELLFDTELADEDLLTHDARDWKTADLYAAMGLSKLRFRATESQIIKAHRKQVVKYHPDKQSAAGGSLDQDGFFKIIQKAFETLTDSNKRAQYDSCDFVADVPPPKKGTDYDFYEAWGPVFEAEARFSKKTPIPSLGNKDSSKKEVEQFYAFWHRFDSWRTFEFLDEDVPDDSSNRDHKRYIERKNKAARDKKKTADNARLVKLVERAVSEDPRIKMFKEEEKKEKERRKWEREAGARAEAEAKAKAEAEAKAKAESEAKANASAKADKKKAKEAAKAAKKKNKRAIRNSAKEADYFGDADKATTIDEQVGLIVDSLNDEELVSTADKIKANAAGAKEVLKESAKTIVDSGKLPSSLLSYFV
# B2: bacterially expressed zuotin: zuotin expressed in E. coli with T7 pET system, Phe→Val after Met (protein, UniProt P32527 1-433, looked up, variant F2V)
# Zuotin: B1 chain with F2V
# How the values were obtained:
# [1] = Testing of peptides for macroscopic membrane formation (phase-contrast microscope, Congo Red staining); format: physicochemical; conditions: for formation of macroscopic membranes: identical conditions, in words; for membranous structure in DMEM: DMEM medium
# Source text: The effect of length and sequence on membrane formation was examined using several peptides (Table 1 and Example 3). […] Very long peptides, e.g., of about 200 amino acids, may encounter problems due to insolubility and intramolecular interactions which destabilize membrane formation. […] The optimal lengths for membrane formation will probably vary with the amino acid composition.
# The EAK12 and EAK16 tested for membrane formation were acetylated and aminylated at both N- and C-terminal ends. […] The peptides were initially dissolved in water (5 mg/ml) or in 23% acetonitrile (10 mg/ml). A volume of 5-10 microliters of the dissolved peptides were applied to the DMEM medium, PBS or water. The formation of the membrane was first observed under a phase-contrast microscope and then, by the naked eye after staining with Congo Red.
# [2] = format: physicochemical
# Description: Circular dichroism (CD) spectra were taken on an Aviv Model 60DS spectropolarimeter using program 60HDS for data processing. Because EAK16 contains both positively and negatively charged residues, the peptide itself can serve as a buffer. CD samples were prepared and measured at 25° C., unless otherwise indicated. All reagents were ultrapure and solutions were filtered through a […] before use. Circular dichroism (CD) spectroscopy was used to monitor the stability of the β-sheet structure of EAK16 under various conditions. Dilute […] concentrations. […] A 3 mM stock EAK16 solution was mixed in water to a concentration of 20 μM, allowed to equilibrate, and the CD spectrum measured. The solution was then diluted five times by two-fold serial dilutions to final concentrations of […], 10, 5.0, 2.5, 1.25 and 0.625 μM, allowed to equilibrate and CD spectra taken. […] Temperature. The CD spectra of 8 μM EAK16 at 25, 37, 55, 70 and 90° C. in water were measured. […] EAK16 has a calculated pI Of 6.71. It was assumed that changes of pH would have a great effect on the β-sheet structure, especially when the charged groups are neutralized. […] The 3 mM stock solution of EAK16 was mixed with pH buffers at pH 1.5, 3, 7, and 11 to a final concentration of 10 μM and allowed to equilibrate for 4 hours before taking CD measurements. […] Chemical denaturants. […] The peptide (3 mM stock) was mixed with water or different concentrations of guanidine-HCl or urea and allowed to incubate overnight before taking CD measurements. SDS was added to a peptide solution to a final concentration of 0.1% and incubated for 30 minutes.
# [3] = tested on: B-DNA; assay: Binding of small peptides to B-DNA and conversion to the Z conformation; format: biochemical
# Source text: A subportion of this histone-like region from amino acids 306 to 339 (heavily underlined in FIG. 1) is a likely candidate for a DNA-binding domain. […] The KAKAX motif (SEQ ID NO: 31) (where X is variable) occurs twice in the 306-339 region and also occurs in the peptide, EAK16. These observations are consistent with the structural similarity of this region to histone H1.
# [4] = tested on: poly(dG-m^5dC) in the Z-form; assay: Gel retardation (band shift) and competition assay for Z-DNA binding; conditions: for competition of binding to poly(dG-m^5dC) by non-Z DNA: excess poly(dG-dC), poly(dA-dT), salmon sperm DNA; for affinity for Z-DNA relative to B-DNA: not purified to homogeneity, estimated
# Source text: Two probes that can be stabilized in the Z-form were used to detect potential Z-DNA binding proteins. One is an ˜600 bp fragment of ^32P-labelled poly(dG-m^5dC) that is stabilized in the Z-DNA form by millimolar concentrations of MgCl2 (Behe and Felsenfeld, 1981); the other is an oligonucleotide, [^32P] (dG-BR^5dC)22, that can be stabilized by millimolar concentrations of MgCl2 or μM concentrations of Co(NH3)6^3+. Yeast whole cell extract, nuclear extracts, and phosphocellulose column fractions of yeast nuclear extracts were assayed by a gel retardation assay using either of these ^32P-labelled DNA fragments as a probe. The gel retardation assay was carried out with the probe in the presence of 10 mM MgCl2 and a 400-fold excess of sheared salmon sperm B-DNA. Under these conditions, the polymer assumes the Z-DNA conformation. A Z-DNA-specific antibody was used for positive control. 1 μl of each fraction of yeast nuclear extract obtained by salt elution from the phosphocellulose column with 0.2-0.5 M potassium phosphate (pH 7.4) was added to the assays.
# In order to determine if these band shifts were the result of authentic Z-DNA binding, negatively supercoiled plasmids of pUC19 and pUC19(GC) were used as competitor DNAs in gel retardation competition assays. In these assays, [^32P] (dG-Br^5dC)22 was incubated in the presence of a 2000-fold excess of sheared salmon sperm DNA with additions as follows: 1) no addition; 2) a monoclonal anti-Z-DNA antibody (mAb); 3) mAb plus additional 50 ng of negatively supercoiled plasmid pUC19 (without a Z-DNA insert); 4) mAb plus 25 ng of negatively supercoiled pUC19(CG) (containing a Z-DNA segment); 5) fraction F1 yeast protein; 6) F1 plus additional 50 ng pUC19; and 7) F1 plus pUC19(GC). pUC19(GC) contains a 14 bp (dG-dC)7 insert that can adopt the Z-conformation upon negative supercoiling. pUC19(GC) was assayed for its resistance to BssHII digestion (Vardimon and Rich, 1983; Azorin et al., 1984) to confirm the presence of the Z-DNA prior to the assay.
# However, enough material was in solution so that crude cell extracts and partially purified zuotin could be prepared and assayed by the band shift assay. Recombinant zuotin was partially purified by chromatography of crude cell extract from induced pETZU01 transformants through phosphocellulose. ^32P-labelled poly(dG-m5dC) in the Z-form was incubated with the crude cell extract or with partially purified zuotin in the presence of sheared salmon sperm DNA, poly(dG-dC), or poly(dG-Br^5dC). Assays were run on: 1) labelled probe alone; 2) crude cell extract from induced pET8c transformants; 3) crude cell extract from uninduced pETZU01 transformants; 4) crude cell extract from induced pETZU01 transformants; 5) partially purified recombinant zuotin; 6) partially purified yeast zuotin; 7)-10) partially purified recombinant zuotin with 20-, 40-, 100-, and 200-fold excess of salmon sperm DNA; 11)-12) partially purified recombinant zuotin with 20- and 40-fold excess of poly(dG-dC); 13)-14) partially purified recombinant zuotin with 20- and 40-fold excess of poly(dG-Br^5dC); 15)-17) partially purified yeast zuotin with 20-, 40-, and 200-fold excess of salmon sperm DNA; 18) partially purified yeast zuotin with 40-fold excess of poly(dG-dC); 19) partially purified yeast zuotin with 40-fold excess of poly(dG-Br^5dC); and 20) an anti-Z-antibody (as control).
# A gel retardation assay was employed to detect proteins with affinity to left-handed Z-DNA. […]
Molecule,membranous structure in PBS [1],formation of macroscopic membranes [1],membranous structure in Water [1],membranous structure in DMEM [1],binding to B-DNA and conversion to Z-DNA [3],also measured
Ac-HN-AEAKAEAEAKAK-CONH2 (Ac-AEAKAEAEAKAK-NH2) [EAK12],+,able to associate to a much smaller extent and formed small and non-uniform pieces of membranous material,−,,,"secondary structure and its stability [2]: denature from a β-sheet structure at high temperatures; Structure ([2]; secondary structure): α, β"
H2N-AEAEAKAK-COOH (H-AEAEAKAK-OH) [EAK8],−,did not form membranes,−,−,,secondary structure and its stability [2]: random coil structure
"H2N-ARARADAD-COOH (H-ARARADAD-OH) [ARD8, 8 amino acid counterpart of RAD16]",−,did not form macroscopic membranes,−,−,,
"H2N-GSNKGAIIGLM-CONH2 (H-GSNKGAIIGLM-NH2) [β-Amyloid (25-35), reference compound]",−,None of these peptides produced macroscopic membranes,−,−,,
"H2N-RPKQQFGLM-COHN2 (H-RPKQQFGLM-NH2) [Substance p, reference compound]",−,None of these peptides produced macroscopic membranes,−,−,,
KAHAK,,,,,active in converting B-DNA to Z-DNA only when the histidine was protonated (at low pH),
KAK,,,,,able to bind to B-DNA and convert it to the Z conformation,
KAKAK,,,,,able to bind to B-DNA and convert it to the Z conformation,
B1,,,,,,"excess of poly(dG-Br^5dC) in the Z-form that completely inhibits binding to the probe [4]: 4 fold; competition of binding to poly(dG-m^5dC) by non-Z DNA [4]: cannot be competed by 40-fold excess of poly(dG-dC), 200-fold excess of poly(dA-dT), nor several thousand-fold of salmon sperm DNA; affinity for Z-DNA relative to B-DNA ([4]; listed as yeast zuotin): bound Z-DNA more tightly than the bacterially expressed zuotin; also recorded: several hundred-fold enhanced affinity for Z-DNA relative to B-DNA"
B2,,,,,,"competition of binding to poly(dG-m^5dC) by non-Z DNA [4]: cannot be competed by 40-fold excess of poly(dG-dC), 200-fold excess of poly(dA-dT), nor several thousand-fold of salmon sperm DNA; affinity for Z-DNA relative to B-DNA [4]: binds less tightly"
